Reference: paper PMC8269243

Biological target: TYLCV coat protein (CP) in viruliferous whiteflies (tomato yellow leaf curl virus (TYLCV) isolate SH2)

Substance “Vitellogenin (Vg) of MEAM1 whitefly (Bta07851), endogenous (natural protein)” has a proportion of phase V midguts (TYLCV movement across the midgut, IFA) in Vg antibody-treated whiteflies after a 24-h AAP; control group 55% of 30% and a reduction of the disease incidence rate of tomato plants in the Vg antibody treatment against the control, 15 days (27%) and 30 days (35%) posttransmission of 35%.
